Data on five molecules can be found in US20240383984A1 (Genentech, published 2024).

For experiment [1], the target named is T1, human FcRH5 protein fragment (soluble) (human, UniProt Q96RD9 16-851).
T1 construct: whole entry named; also called soluble human FcRH5; Human FcRH5 (BIACORE analyte)
T1 sequence: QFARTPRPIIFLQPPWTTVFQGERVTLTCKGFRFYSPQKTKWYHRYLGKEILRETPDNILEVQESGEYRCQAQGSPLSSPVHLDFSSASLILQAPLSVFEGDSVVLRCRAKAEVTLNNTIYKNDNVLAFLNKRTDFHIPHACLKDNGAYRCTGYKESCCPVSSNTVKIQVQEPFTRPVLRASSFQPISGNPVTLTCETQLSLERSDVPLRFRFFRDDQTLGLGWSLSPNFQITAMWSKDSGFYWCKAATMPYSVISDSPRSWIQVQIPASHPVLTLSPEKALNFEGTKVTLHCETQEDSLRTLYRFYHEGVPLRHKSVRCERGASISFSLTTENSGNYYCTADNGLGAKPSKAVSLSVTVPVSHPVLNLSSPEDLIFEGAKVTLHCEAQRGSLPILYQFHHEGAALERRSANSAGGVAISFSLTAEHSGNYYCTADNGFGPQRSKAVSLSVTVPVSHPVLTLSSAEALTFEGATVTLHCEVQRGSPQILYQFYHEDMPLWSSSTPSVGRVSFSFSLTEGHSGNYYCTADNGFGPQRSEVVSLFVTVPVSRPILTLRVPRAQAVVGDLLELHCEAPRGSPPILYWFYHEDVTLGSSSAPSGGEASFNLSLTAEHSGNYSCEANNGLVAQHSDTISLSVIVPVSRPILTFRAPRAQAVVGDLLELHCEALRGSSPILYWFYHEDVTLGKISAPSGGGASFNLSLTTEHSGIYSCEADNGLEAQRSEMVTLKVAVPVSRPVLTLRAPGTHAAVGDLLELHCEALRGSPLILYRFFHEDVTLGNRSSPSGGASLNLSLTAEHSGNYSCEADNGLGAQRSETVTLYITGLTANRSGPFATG
Description: BIACORE, human IgG1, soluble human FcRH5. A general note: Surface plasmon resonance follows binding to a sensor surface in real time, without labels.

The target of experiment [2] is T1, human FcRH5 protein fragment (soluble). Description: SPR (BIACORE), IgG captured via anti-human IgG, FcRH5 protein fragment as analyte (100 and 500 nM). The procedure:
(§1) Briefly, a human IgG capture surface was generated on a Series S CM5 chip using amine coupling and the human IgG capture kit (GE Life Sciences, Piscataway, NJ). Test antibodies were then captured on flow cells 2, 3, or 4, with flow cell 1 used as a reference. An FcRH5 protein fragment was used as the analyte, with a flow rate of […]. Between injections the capture surface was regenerated by a 30-second injection of 3M magnesium chloride or 10 mM glycine, pH 1.5. Interactions were assessed at 25° C. in 10 mM HEPES pH7.4, 150 mM NaCl, and 0.05% Tween 20 (HBSP). Reference data from the reference flow cell and from injection of buffer alone were subtracted prior to kinetic analysis. Kinetic information was calculated by fitting data to a 1:1 binding model. Reference subtraction and data fitting were performed using BIAevaluation software (GE Life Sciences, Piscataway, NJ).
(§2) For affinity screening of HVR-H2 Trp52 and Met64 variants (Table 7), antibodies were expressed by transient transfection of Expi293 cells and purified using tip columns that were custom packed with affinity resin MabSelect SuRe (Glygen Corp., Columbia, MD & GE Life Sciences, Piscataway, NJ). […] Binding of FcRH5 protein fragment to captured antibodies was monitored at 100 nM and 500 nM. Association and dissociation were monitored at a flow rate of 40 μl/min, for 180 s and 300 s, respectively.

Experiment [3] has the same target. Description: SPR, hIgG capture, screening. The procedure: as §1, §2
Experiment [4] has the same target. Description: SPR, hIgG capture, 1:1 model. The procedure: as §1
(§3) Kinetic characterization experiments were carried out (see Table 8). In these experiments, binding of soluble FcRH5 protein fragment to purified antibodies in human TDB antibody format was analyzed at six different non-zero concentrations (a 1:3 dilution series, one concentration injected twice as a replicate). Flow rate was set at 40 μl/min and association and dissociation monitored for 600 s.

Experiment [5] deals with T2, cynomolgus FcRH5 protein fragment (soluble) (cynomolgus monkey).
T2 construct: whole entry named; also called Cyno FcRH5 (BIACORE analyte)
T2 chain: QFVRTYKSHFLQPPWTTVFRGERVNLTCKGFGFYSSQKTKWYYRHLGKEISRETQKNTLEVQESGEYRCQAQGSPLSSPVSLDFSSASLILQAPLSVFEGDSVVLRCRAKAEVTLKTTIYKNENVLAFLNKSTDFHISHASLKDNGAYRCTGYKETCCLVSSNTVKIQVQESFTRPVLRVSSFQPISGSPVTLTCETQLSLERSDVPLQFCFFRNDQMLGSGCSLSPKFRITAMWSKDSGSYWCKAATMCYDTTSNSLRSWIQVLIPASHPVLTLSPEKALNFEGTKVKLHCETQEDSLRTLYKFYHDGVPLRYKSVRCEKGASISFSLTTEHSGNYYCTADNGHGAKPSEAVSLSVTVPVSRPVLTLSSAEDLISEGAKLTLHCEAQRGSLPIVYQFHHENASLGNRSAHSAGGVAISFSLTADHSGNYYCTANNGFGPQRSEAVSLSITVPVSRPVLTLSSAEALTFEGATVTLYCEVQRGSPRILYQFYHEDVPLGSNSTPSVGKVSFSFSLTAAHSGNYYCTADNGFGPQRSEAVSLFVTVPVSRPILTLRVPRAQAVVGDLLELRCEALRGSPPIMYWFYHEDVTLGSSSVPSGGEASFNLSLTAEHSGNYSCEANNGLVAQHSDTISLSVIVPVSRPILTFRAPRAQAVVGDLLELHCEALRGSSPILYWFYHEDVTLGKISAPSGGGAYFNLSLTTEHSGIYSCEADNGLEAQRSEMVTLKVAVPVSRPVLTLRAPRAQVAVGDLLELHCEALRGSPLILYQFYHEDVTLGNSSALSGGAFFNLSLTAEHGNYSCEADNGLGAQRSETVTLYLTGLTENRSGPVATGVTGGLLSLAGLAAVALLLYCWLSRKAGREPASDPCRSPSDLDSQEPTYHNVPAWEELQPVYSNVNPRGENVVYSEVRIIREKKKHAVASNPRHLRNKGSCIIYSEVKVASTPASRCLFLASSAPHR
Description: SPR, hIgG capture, 1:1 model. The procedure: as §1, §3

Where a chain is given by its changes, count along the chain named. Numbers in names are those of the source.

B1: hu1G7.v85 (hIgG1) (antibody, V domains shown)
VH: EVQLVESGPGLVKPSETLSLTCTVSGFSLTRFGVHWVRQPPGKGLEWLGVIWRGGSTDYNAAFVSRLTISKDNSKNQVSLKLSSVTAADTAVYYCSNHYYGSSDYALDNWGQGTLVTVSS
VL: DIQMTQSPSSLSASVGDRVTITCKASQDVRNLVVWFQQKPGKAPKLLIYSGSYRYSGVPSRFSGSGSGTDFTLTISSLQPEDFATYYCQQHYSPPYTFGQGTKVEIK
notes: bivalent hIgG1; also called hu1G7.v1.4.M64V
The Kd is the constant that tells how readily two partners part at equilibrium. High values mean a looser complex, low ones a tighter complex. One may read the koff as the rate constant with which the complex falls apart. Higher therefore signals a short-lived complex. As a reminder, the kon is the second-order rate constant of association. The low end stands for slow association, the high end for fast association. In the case of B1, the “Fold improvement over hu1G7.v1” value in experiment [1] worked out at 17 fold. Further, the Kd in experiment [1] amounted to 0.8 nM; in experiment [2] it was 2.5 nM; in experiment [3] it was 2.5 nM; in experiment [4] it was 2.5 nM; in experiment [5], 7.2 nM. Besides, the off-rate constant (koff) in experiment [4] turned out to be 0.002 s⁻¹; in experiment [5], 0.001 s⁻¹. Moreover, the kon in experiment [4] came out at 600000 M⁻¹ s⁻¹; in experiment [5] it was 100000 M⁻¹ s⁻¹.

B2: hu1G7.v1.4 (hIgG1) (antibody, V domains shown)
VH: B1 VH with V64M
VL: B1 VL
notes: hIgG1
In experiment [4], B2 displayed a Kd of 2.6 nM, a koff of 0.002 s⁻¹ and a kon of 700000 M⁻¹ s⁻¹. Further, in experiment [5], binding was put at a Kd of 7.7 nM, the koff is 0.001 s⁻¹ and the kon was determined as 100000 M⁻¹ s⁻¹.

B3: hu1G7.v91 (antibody, human IgG1, V domains shown)
VH: B1 VH with L29T
VL: B1 VL with R30S, A43S
Molecule B3 showed a Kd in experiment [1] of 0.7 nM.

B4: hu1G7.v92 (antibody, human IgG1, V domains shown)
VH: B1 VH with S103P
VL: B1 VL with R30S, A43S
notes: human IgG1
Turning to B4, in experiment [1], the “Fold improvement over hu1G7.v1” value worked out at 15.9 fold; the “Fold improvement over hu1G7.v86” value is 1.5 fold; the affinity, expressed as Kd, was 0.9 nM.

B5: hu1G7.v93 (antibody, human IgG1, V domains shown)
VH: B1 VH with L29T, S103P
VL: B1 VL with R30S
notes: human IgG1
Regarding B5, in experiment [1], the “Fold improvement over hu1G7.v1” value worked out at 25.3 fold, the “Fold improvement over hu1G7.v86” value came out at 2.5 fold and binding was characterised by a dissociation constant (Kd) of 0.6 nM.
